In article PMC3145977, “Thermostabilisation of an Agonist-Bound Conformation of the Human Adenosine A2A Receptor” (Journal of Molecular Biology, 2011):
Numbering of substitutions follows the chain as printed. Numbers in names are those of the source.

Assays:
[^3H]NECA-bound A2AR = Thermostability assay of detergent-solubilised receptor with [3H]NECA bound (ligand plus format); type: physicochemical, human
Description: […]. After solubilisation in DDM, A2AR was bound to Ni^2+-NTA resin, washed to reduce the DDM concentration and then eluted (see Methods). […]. An aliquot of E. coli cells (14 mL) was thawed on ice and resupended in 500 μL of buffer A [50 mM Tris–HCl (pH 7.4), 0.4 M NaCl, 250 μg/mL lysozyme (Sigma) and 1 mg/mL DNase I (Sigma), supplemented with complete ethylenediaminetetraacetic acid (EDTA)-free Protease inhibitor cocktail (Roche)] and incubated for 1 h at 4 °C. Samples were then sonicated for 1 min at 4 °C using a cup-horn sonicator. The receptors were solubilised by adding 1% DDM and incubated for 1 h at 4 °C. Insoluble material was removed by centrifugation (5 min, 13,000g, 4 °C). The solubilised receptors were partially purified with Ni-NTA agarose (Qiagen). Agarose beads (300 μL) pre-equilibrated in buffer A were added to 700 μL of solubilised receptor. […].
(§1) The sample was incubated for 45 min at 4 °C, then 30 min at the specified temperature and then 30 min at 4 °C. Receptor-bound and free radioligands were separated as previously described on mini gel-filtration columns.[26] Receptor-bound ligands were transferred to a 96-well plate (PerkinElmer) and mixed with 200 μL of Optiphase supermix (PerkinElmer). The bound ^3H-labeled ligand was determined using a 1450 Microbeta Trilux counter (1 min per sample).
For all the thermostabilisation studies carried out in our laboratory, the apparent Tm is the temperature for which 50% of the solubilised receptor remains folded after 30 min of incubation. The rate constant of the protein denaturation is a function of the temperature, and consequently, thermal denaturation of a protein can be compared to a chemical reaction for which the rate of the reaction is dependant on the temperature. Arrhenius established that any chemical reaction is temperature dependant. […]. The reference measurement representing the total binding activity of the sample A0 was considered to be measured at 4 °C. From the graphical representation t = Log10(t1/2) (Fig. 2c), we could extract a half-life for each construct at any temperature to define the improvement in stability of the various mutants compared to WT A2AR.

[^3H]ZM241385-bound A2AR = Thermostability assay of detergent-solubilised receptor with [3H]ZM241385 bound; type: physicochemical, human; settings: for Binding of [^3H]ZM241385: at 4 °C, 100 nM radioligand
Description: An aliquot of E. coli cells (14 mL) was thawed on ice and resupended in 500 μL of buffer A [50 mM Tris–HCl (pH 7.4), 0.4 M NaCl, 250 μg/mL lysozyme (Sigma) and 1 mg/mL DNase I (Sigma), supplemented with complete ethylenediaminetetraacetic acid (EDTA)-free Protease inhibitor cocktail (Roche)] and incubated for 1 h at 4 °C. Samples were then sonicated for 1 min at 4 °C using a cup-horn sonicator. The receptors were solubilised by adding 1% DDM and incubated for 1 h at 4 °C. Insoluble material was removed by centrifugation (5 min, 13,000g, 4 °C). The solubilised receptors were partially purified with Ni-NTA agarose (Qiagen). Agarose beads (300 μL) pre-equilibrated in buffer A were added to 700 μL of solubilised receptor. […].
as §1

B1: GL10: A2AR mutant L48A-Q89A (protein, UniProt P29274 1-412, looked up, variant L48A Q89A)
Adenosine receptor A2a: MPIMGSSVYITVELAIAVLAILGNVLVCWAVWLNSNLQNVTNYFVVSAAAADIAVGVLAIPFAITISTGFCAACHGCLFIACFVLVLTASSIFSLLAIAIDRYIAIRIPLRYNGLVTGTRAKGIIAICWVLSFAIGLTPMLGWNNCGQPKEGKNHSQGCGEGQVACLFEDVVPMNYMVYFNFFACVLVPLLLMLGVYLRIFLAARRQLKQMESQPLPGERARSTLQKEVHAAKSLAIIVGLFALCWLPLHIINCFTFFCPDCSHAPLWLMYLAIVLSHTNSVVNPFIYAYRIREFRQTFRKIIRSHVLRQQEPFKAAGTSARVLAAHGSDGEQVSLRLNGHPPGVWANGSAPHPERRPNGYALGLVSGGSAQESQGNTGLPDVELLSHELKGVCPEPPGLDDPLAQDGAGVS
Apparent Tm in DDM, Single measurement ([^3H]NECA-bound A2AR): 47.5 °C | Improvement in stability compared to WT based on t1/2 (decrease in rate of unfolding) ([^3H]NECA-bound A2AR; [3H]NECA bound, DDM, from Fig. 2c): 136 fold

B2: GL22: A2AR mutant L48A-Q89A-F62A (protein, UniProt P29274 1-412, looked up, variant L48A Q89A F62A)
Adenosine receptor A2a: B1 Adenosine receptor A2a with F62A
Apparent Tm in DDM, Single measurement ([^3H]NECA-bound A2AR): 45.5 °C

B3: GL20: A2AR mutant L48A-Q89A-V12A (protein, UniProt P29274 1-412, looked up, variant L48A Q89A V12A)
Adenosine receptor A2a: B1 Adenosine receptor A2a with V12A
Apparent Tm in DDM, Single measurement ([^3H]NECA-bound A2AR): 46 °C

B4: GL11: A2AR mutant L48A-S90A (protein, UniProt P29274 1-412, looked up, variant L48A S90A)
Adenosine receptor A2a: B1 Adenosine receptor A2a with A89Q, S90A
Apparent Tm in DDM, Single measurement ([^3H]NECA-bound A2AR): 46 °C

B5: A54L: A2AR point mutant A54L (protein, UniProt P29274 1-412, looked up, variant A54L)
Adenosine receptor A2a: B1 Adenosine receptor A2a with A48L, A54L, A89Q
Apparent Tm, Antagonist [^3H]ZM241385 ([^3H]ZM241385-bound A2AR): 38 °C | ΔTm, Antagonist [^3H]ZM241385 ([^3H]ZM241385-bound A2AR): + 6 °C

B6: GL21: A2AR mutant L48A-Q89A-A54L (protein, UniProt P29274 1-412, looked up, variant L48A Q89A A54L)
Adenosine receptor A2a: B1 Adenosine receptor A2a with A54L
Apparent Tm in DDM, Single measurement ([^3H]NECA-bound A2AR): 46 °C

B7: F62A: A2AR point mutant F62A (protein, UniProt P29274 1-412, looked up, variant F62A)
Adenosine receptor A2a: B1 Adenosine receptor A2a with A48L, F62A, A89Q
Binding of [^3H]ZM241385 ([^3H]ZM241385-bound A2AR): did not bind

B8: F242A: A2AR point mutant F242A (protein, UniProt P29274 1-412, looked up, variant F242A)
Adenosine receptor A2a: B1 Adenosine receptor A2a with A48L, A89Q, F242A
Binding of [^3H]ZM241385 ([^3H]ZM241385-bound A2AR): did not bind

B9: F79A: A2AR point mutant F79A (protein, UniProt P29274 1-412, looked up, variant F79A)
Adenosine receptor A2a: B1 Adenosine receptor A2a with A48L, F79A, A89Q
Binding of [^3H]ZM241385 ([^3H]ZM241385-bound A2AR): did not bind

B10: T65A: A2AR point mutant T65A (protein, UniProt P29274 1-412, looked up, variant T65A)
Adenosine receptor A2a: B1 Adenosine receptor A2a with A48L, T65A, A89Q
Apparent Tm, Antagonist [^3H]ZM241385 ([^3H]ZM241385-bound A2AR): 38 °C | ΔTm, Antagonist [^3H]ZM241385 ([^3H]ZM241385-bound A2AR): + 6 °C

B11: GL26: A2AR mutant L48A-Q89A-T65A-A54L (protein, UniProt P29274 1-412, looked up, variant L48A Q89A T65A A54L)
Adenosine receptor A2a: B1 Adenosine receptor A2a with A54L, T65A
Apparent Tm in DM, Single measurement ([^3H]NECA-bound A2AR): 46 °C | Increase in stability versus WT receptor in DM ([^3H]NECA-bound A2AR; DM): 21.5 °C

B12: GL27: A2AR mutant L48A-Q89A-T65A-F83A (protein, UniProt P29274 1-412, looked up, variant L48A Q89A T65A F83A)
Adenosine receptor A2a: B1 Adenosine receptor A2a with T65A, F83A
Apparent Tm in DM, Single measurement ([^3H]NECA-bound A2AR): 44 °C

B13: GL15: A2AR mutant L48A-I238A (protein, UniProt P29274 1-412, looked up, variant L48A I238A)
Adenosine receptor A2a: B1 Adenosine receptor A2a with A89Q, I238A
Apparent Tm in DDM, Single measurement ([^3H]NECA-bound A2AR): 42.5 °C

B14: GL5: A2AR mutant L48A-V57A (protein, UniProt P29274 1-412, looked up, variant L48A V57A)
Adenosine receptor A2a: B1 Adenosine receptor A2a with V57A, A89Q
Apparent Tm in DDM, Single measurement ([^3H]NECA-bound A2AR): 41.5 °C

B15: S90A: A2AR point mutant S90A (protein, UniProt P29274 1-412, looked up, variant S90A)
Adenosine receptor A2a: B1 Adenosine receptor A2a with A48L, A89Q, S90A
Apparent Tm, Antagonist [^3H]ZM241385 ([^3H]ZM241385-bound A2AR): 32 °C | ΔTm, Antagonist [^3H]ZM241385 ([^3H]ZM241385-bound A2AR): 0 °C

B16: GL9: A2AR mutant L48A-F83A (protein, UniProt P29274 1-412, looked up, variant L48A F83A)
Adenosine receptor A2a: B1 Adenosine receptor A2a with F83A, A89Q
Apparent Tm in DDM, Single measurement ([^3H]NECA-bound A2AR): 43.5 °C

B17: GL29: A2AR mutant L48A-Q89A-T65A- S263A (protein, UniProt P29274 1-412, looked up, variant L48A Q89A T65A S263A)
Adenosine receptor A2a: B1 Adenosine receptor A2a with T65A, S263A
Apparent Tm in DM, Single measurement ([^3H]NECA-bound A2AR): 44.5 °C

B18: GL8: A2AR mutant L48A-F79A (protein, UniProt P29274 1-412, looked up, variant L48A F79A)
Adenosine receptor A2a: B1 Adenosine receptor A2a with F79A, A89Q
Apparent Tm in DDM, Single measurement ([^3H]NECA-bound A2AR): 45.5 °C

B19: GL7: A2AR mutant L48A-T65A (protein, UniProt P29274 1-412, looked up, variant L48A T65A)
Adenosine receptor A2a: B1 Adenosine receptor A2a with T65A, A89Q
Apparent Tm in DDM, Single measurement ([^3H]NECA-bound A2AR): 45 °C

B20: V57A: A2AR point mutant V57A (protein, UniProt P29274 1-412, looked up, variant V57A)
Adenosine receptor A2a: B1 Adenosine receptor A2a with A48L, V57A, A89Q
Apparent Tm, Antagonist [^3H]ZM241385 ([^3H]ZM241385-bound A2AR): 38 °C | ΔTm, Antagonist [^3H]ZM241385 ([^3H]ZM241385-bound A2AR): + 6 °C

B21: GL24: A2AR mutant L48A-Q89A-F79A (protein, UniProt P29274 1-412, looked up, variant L48A Q89A F79A)
Adenosine receptor A2a: B1 Adenosine receptor A2a with F79A
Apparent Tm in DDM, Single measurement ([^3H]NECA-bound A2AR): 46 °C

B22: F83A: A2AR point mutant F83A (protein, UniProt P29274 1-412, looked up, variant F83A)
Adenosine receptor A2a: B1 Adenosine receptor A2a with A48L, F83A, A89Q
Apparent Tm, Antagonist [^3H]ZM241385 ([^3H]ZM241385-bound A2AR): 16.5 °C | ΔTm, Antagonist [^3H]ZM241385 ([^3H]ZM241385-bound A2AR): − 15.5 °C

B23: Q89A: A2AR point mutant Q89A (protein, UniProt P29274 1-412, looked up, variant Q89A)
Adenosine receptor A2a: B1 Adenosine receptor A2a with A48L
Apparent Tm, Antagonist [^3H]ZM241385 ([^3H]ZM241385-bound A2AR): 26 °C | ΔTm, Antagonist [^3H]ZM241385 ([^3H]ZM241385-bound A2AR): − 8 °C

B24: GL19: A2AR mutant L48A-V282A (protein, UniProt P29274 1-412, looked up, variant L48A V282A)
Adenosine receptor A2a: B1 Adenosine receptor A2a with A89Q, V282A
Apparent Tm in DDM, Single measurement ([^3H]NECA-bound A2AR): 40 °C

B25: GL1: A2AR mutant L48A-V12A (protein, UniProt P29274 1-412, looked up, variant L48A V12A)
Adenosine receptor A2a: B1 Adenosine receptor A2a with V12A, A89Q
Apparent Tm in DDM, Single measurement ([^3H]NECA-bound A2AR): 45.5 °C

B26: GL17: A2AR mutant L48A-F242A (protein, UniProt P29274 1-412, looked up, variant L48A F242A)
Adenosine receptor A2a: B1 Adenosine receptor A2a with A89Q, F242A
Apparent Tm in DDM, Single measurement ([^3H]NECA-bound A2AR): 39.5 °C

B27: GL6: A2AR mutant L48A-F62A (protein, UniProt P29274 1-412, looked up, variant L48A F62A)
Adenosine receptor A2a: B1 Adenosine receptor A2a with F62A, A89Q
Apparent Tm in DDM, Single measurement ([^3H]NECA-bound A2AR): 45 °C

B28: GL14: A2AR mutant L48A-A236L (protein, UniProt P29274 1-412, looked up, variant L48A A236L)
Adenosine receptor A2a: B1 Adenosine receptor A2a with A89Q, A236L
Apparent Tm in DDM, Single measurement ([^3H]NECA-bound A2AR): 40.5 °C

B29: GL25: A2AR mutant L48A-Q89A-T65A-A50L (protein, UniProt P29274 1-412, looked up, variant L48A Q89A T65A A50L)
Adenosine receptor A2a: B1 Adenosine receptor A2a with A50L, T65A
Apparent Tm in DM, Single measurement ([^3H]NECA-bound A2AR): 44.5 °C

B30: GL4: A2AR mutant L48A-A54L (protein, UniProt P29274 1-412, looked up, variant L48A A54L)
Adenosine receptor A2a: B1 Adenosine receptor A2a with A54L, A89Q
Apparent Tm in DDM, Single measurement ([^3H]NECA-bound A2AR): 46 °C
